According to US20190309079A1 (Regeneron, published 2019):
Substitutions are numbered along the chain they refer to.

T1: LEPR-P316T (signaling-impaired mutant) on HEK293 reporter cells (human, UniProt P48357 22-1165)
T1 sequence: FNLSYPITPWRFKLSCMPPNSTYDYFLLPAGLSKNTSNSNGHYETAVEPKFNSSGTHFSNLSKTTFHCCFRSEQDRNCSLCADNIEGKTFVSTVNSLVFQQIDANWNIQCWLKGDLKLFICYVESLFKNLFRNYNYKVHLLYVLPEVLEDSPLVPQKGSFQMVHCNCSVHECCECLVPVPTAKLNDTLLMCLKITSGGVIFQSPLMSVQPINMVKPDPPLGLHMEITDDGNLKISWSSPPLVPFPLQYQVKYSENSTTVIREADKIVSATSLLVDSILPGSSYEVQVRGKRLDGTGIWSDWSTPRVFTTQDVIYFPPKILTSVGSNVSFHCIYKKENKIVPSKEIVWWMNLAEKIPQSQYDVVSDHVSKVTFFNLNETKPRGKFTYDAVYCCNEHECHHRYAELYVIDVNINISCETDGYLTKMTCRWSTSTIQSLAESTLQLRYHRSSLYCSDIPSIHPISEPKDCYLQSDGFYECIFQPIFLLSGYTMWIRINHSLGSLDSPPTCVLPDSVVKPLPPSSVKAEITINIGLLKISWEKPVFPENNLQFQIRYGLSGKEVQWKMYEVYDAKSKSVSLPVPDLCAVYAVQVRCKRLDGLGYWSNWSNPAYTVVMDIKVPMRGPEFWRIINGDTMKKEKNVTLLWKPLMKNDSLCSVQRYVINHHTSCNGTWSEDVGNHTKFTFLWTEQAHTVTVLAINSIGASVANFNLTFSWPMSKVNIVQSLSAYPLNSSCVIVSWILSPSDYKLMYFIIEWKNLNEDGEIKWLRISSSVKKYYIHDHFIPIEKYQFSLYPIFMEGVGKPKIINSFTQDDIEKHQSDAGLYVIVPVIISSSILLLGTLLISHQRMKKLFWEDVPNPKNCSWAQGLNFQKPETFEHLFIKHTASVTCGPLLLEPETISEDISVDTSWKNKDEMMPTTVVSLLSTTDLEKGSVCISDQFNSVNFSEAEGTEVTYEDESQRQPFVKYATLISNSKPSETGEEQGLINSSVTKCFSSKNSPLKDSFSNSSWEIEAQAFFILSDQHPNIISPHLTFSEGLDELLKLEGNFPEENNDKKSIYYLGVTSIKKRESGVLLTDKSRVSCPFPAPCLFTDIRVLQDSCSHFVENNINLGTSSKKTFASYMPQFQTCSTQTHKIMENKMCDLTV

T2: LEPR-A409E (signaling-defective mutant) on HEK293 reporter cells (human, UniProt P48357 22-1165)
T2 sequence: T1 sequence with T295P, A388E

B1: H4H16650P2 (antibody, V domains shown)
VH: QVQLVESGGGVVQPGKSLRLSCVASGFTFSSDAMYWVRQAPGKGLEWVAVIYYDGNYQYYEDSVKGRFTISRDNSQNTLDLQMNSLRVDDTAVYFCARLNWDYWYLDLWGRGTLVTVSS
VL: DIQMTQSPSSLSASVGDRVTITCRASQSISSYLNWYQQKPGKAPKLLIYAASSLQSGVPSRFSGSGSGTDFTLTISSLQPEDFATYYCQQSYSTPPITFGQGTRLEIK
B2: H4H16679P2 (antibody, V domains shown)
VH: QVQLVESGGGVVQPGRSLRLSCTASGFTFSSYAMYWVRQAPGKGLEWVSVIYYDGSYKYYADSVKGRFTISRDNSKNTLYLQMDSLRAEDTAVYYCASYNWNYWYFDFWGRGTLVTVSS
VL: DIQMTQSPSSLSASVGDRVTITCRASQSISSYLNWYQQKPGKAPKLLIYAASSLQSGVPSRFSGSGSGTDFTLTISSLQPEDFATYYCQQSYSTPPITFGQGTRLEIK

Key:
[1] = molecular target: T1, LEPR-P316T (signaling-impaired mutant) …; experiment: cell-based or functional assay
[2] = molecular target: T2, LEPR-A409E (signaling-defective mutant) …; experiment: cell-based or functional assay

EC50 (read off the curve), pSTAT3 Y705/STAT3 densitometry [1] [M]	EC50 (read off the curve), pSTAT3 Y705/STAT3 densitometry [2] [M]	Binder
~4e-10	–	B1
–	~6e-10	B2
